# In patent US11306156:
# pKd: −log10 of the molar value. Where “and” joins values, the source holds several entries; their conditions need not be identical. Equal values may be shown once.
# Legend:
# [1] = biological target: D3H44 Fab heavy chain Q179R, ABD2-His6 tagged; assay: LCCA, SPR of light chain tags; L1:L2 DNA 1:9 normalized to 1:1; competing light chain m16
# [2] = biological target: D3H44 Fab heavy chain L143E_K145T_Q179E, ABD2-His6 tagged; assay: as above
# [3] = biological target: D3H44 Fab heavy chain Q179K, ABD2-His6 tagged; assay: as above
# [4] = biological target: D3H44 Fab heavy chain Q179R, ABD2-His6 tagged; assay: LCCA, SPR of light chain tags; L1:L2 DNA 1:3 normalized to 1:1; competing light chain m16
# [5] = biological target: D3H44 Fab heavy chain L143E_K145T_Q179E, ABD2-His6 tagged; assay: as above
# [6] = biological target: D3H44 Fab heavy chain Q179K, ABD2-His6 tagged; assay: as above
# [7] = biological target: D3H44 light chain V133G_S176D_T178E_T180E; assay: LCCA (co-expression, SPR tag read-out), L1:L2 DNA 1:3 normalised to 1:1; competing light chain m8
# [8] = biological target: D3H44 light chain Q124E_V133G_S176D_T178E_T180E; assay: as above
# [9] = biological target: D3H44 light chain V133G_Q160E_S176D_T180E; assay: as above
# [10] = biological target: D3H44 light chain Q124E_V133G_S176D_T178E_T180E; assay: LCCA (co-expression, SPR tag read-out), L1:L2 DNA 1:9 normalised to 1:1; competing light chain m8
# [11] = biological target: D3H44 light chain V133G_Q160E_S176D_T180E; assay: as above
# [12] = biological target: D3H44 light chain V133G_S176D_T178E_T180E; assay: LCCA (co-expression, SPR tag read-out), L1:L2 DNA 1:3 normalised to 1:1; competing light chain m7
# [13] = biological target: D3H44 light chain Q124E_V133G_S176D_T178E_T180E; assay: as above
# [14] = biological target: tissue factor (TF) antigen (UniProt P13726); assay: SPR (ProteOn XPR36), Fab captured on anti-penta-His surface, TF injected as analyte, 1:1 fit; reference wild-type D3H44 Fab
# [15] = biological target: tissue factor (TF) antigen (UniProt P13726); assay: SPR (ProteOn XPR36), Fab captured on anti-penta-His surface, TF injected as analyte, 1:1 fit
# [16] = biological target: D3H44 light chain F116C_Q124R_T178R with N-terminal HA or FLAG tag; assay: LCCA (SPR tag readout), L1:L2 DNA 1:3, normalized to 1:1; competing light chain m18
# [17] = biological target: D3H44 light chain Q124E_Q160E_T180E with N-terminal HA or FLAG tag; assay: LCCA (SPR tag readout), L1:L2 DNA 1:3, normalized to 1:1; competing light chain m17
# [18] = biological target: tissue factor (TF) antigen (human (from the antibody's name 'anti-human tissue factor'; not stated for the antigen lot in the assay)) (UniProt P13726); assay: SPR (ProteOn XPR36): Fab captured via His tag on anti-penta His surface, TF injected, 1:1 fit
# [19] = biological target: tissue factor (TF) antigen (human (from the antibody's name 'anti-human tissue factor'; not stated for the antigen lot in the assay)) (UniProt P13726); assay: SPR (ProteOn XPR36), Fab captured on anti-penta His, TF analyte; against wild-type D3H44 Fab
# [20] = biological target: D3H44 light chain Q38R_Q124R_Q160K_T178R; assay: LCCA, SPR tag readout, L1:L2 DNA 1:3 normalized to 1:1; competitor m19
# [21] = biological target: D3H44 light chain Q38E_Q124E_Q160E_T180E; assay: LCCA, SPR tag readout, L1:L2 DNA 1:3 normalized to 1:1; competitor m26
# [22] = biological target: D3H44 light chain Q124R_T178R with N-terminal HA or FLAG tag; assay: LCCA (SPR tag readout), L1:L2 DNA 1:3, normalized to 1:1; competing light chain m16
# [23] = biological target: D3H44 light chain Q124R_T178R with N-terminal HA or FLAG tag; assay: LCCA (SPR tag readout), L1:L2 DNA 1:9, normalized to 1:1; competing light chain m16
# [24] = biological target: D3H44 light chain Q124E_V133D with N-terminal HA or FLAG tag; assay: LCCA (SPR tag readout), L1:L2 DNA 1:9, normalized to 1:1; competing light chain m9
# [25] = biological target: D3H44 light chain Q124E_V133D with N-terminal HA or FLAG tag; assay: LCCA (SPR tag readout), L1:L2 DNA 1:3, normalized to 1:1; competing light chain m9
# [26] = biological target: D3H44 Fab heavy chain L143E_K145T_Q179D, ABD2-His6 tagged; assay: LCCA, SPR of light chain tags; L1:L2 DNA 1:3 normalized to 1:1; competing light chain m19
# [27] = biological target: D3H44 Fab heavy chain S186K, ABD2-His6 tagged; assay: as above
# [28] = biological target: D3H44 Fab heavy chain S186R, ABD2-His6 tagged; assay: as above
# [29] = biological target: D3H44 Fab heavy chain L143E_K145T_Q179E, ABD2-His6 tagged; assay: as above
# [30] = biological target: tissue factor (TF) antigen (UniProt P13726); assay: SPR (ProteOn XPR36), Fab captured on anti-penta-His surface, TF injected as analyte, 1:1 fit; marked * (estimated from a Fab that differs only in the L chain tag)
# [31] = biological target: tissue factor (TF) antigen (UniProt P13726); assay: SPR (ProteOn XPR36), Fab captured on anti-penta-His surface, TF injected as analyte, 1:1 fit; marked * (estimated from a Fab that differs only in the L chain tag); reference wild-type D3H44 Fab
# [32] = biological target: D3H44 light chain P44F_S131K; assay: LCCA, SPR tag readout, L1:L2 DNA 1:3 normalized to 1:1; competitor m19
# [33] = biological target: D3H44 light chain P44F_S131K; assay: LCCA, SPR tag readout, L1:L2 DNA 1:9 normalized to 1:1; competitor m22
# [34] = biological target: D3H44 light chain Q124E_Q160E_T180E_C214S; assay: LCCA, SPR tag readout, L1:L2 DNA 1:9 normalized to 1:1; competitor m20
# [35] = biological target: D3H44 light chain P44F_S131K; assay: LCCA, SPR tag readout, L1:L2 DNA 1:3 normalized to 1:1; competitor m22
# [36] = biological target: D3H44 light chain Q38E_Q124E_Q160E_T180E; assay: LCCA, SPR tag readout, L1:L2 DNA 1:3 normalized to 1:1; competitor m20
# [37] = biological target: D3H44 light chain Q124E_Q160E_T180E_C214S; assay: as above
# [38] = biological target: D3H44 light chain V133G_S176D_T178D_T180E; assay: LCCA (co-expression, SPR tag read-out), L1:L2 DNA 1:3 normalised to 1:1; competing light chain m8
# [39] = biological target: D3H44 light chain Q124E_V133G_S176D_T178D_T180E; assay: as above
# [40] = biological target: D3H44 light chain V133G_S176D_T178D_T180E; assay: LCCA (co-expression, SPR tag read-out), L1:L2 DNA 1:3 normalised to 1:1; competing light chain m7
# [41] = biological target: D3H44 light chain Q124E_V133G_S176D_T178D_T180E; assay: as above
# [42] = biological target: D3H44 Fab heavy chain L124W_L143F_K145T_Q179E, ABD2-His6 tagged; assay: LCCA, SPR of light chain tags; L1:L2 DNA 1:3 normalized to 1:1; competing light chain m14
substance,measurement,setting,value
"D3H44 light chain Q124E_T178E, HA or FLAG tagged",H2L2:H2L1 normalized median ratio,[1],85%
same,H1L1:H1L2 normalized median ratio,[2],15%
same,H2L2:H2L1 normalized median ratio,[3],89%
same,H2L2:H2L1 normalized median ratio,[4],97%
same,H1L1:H1L2 normalized median ratio,[5],14%
same,H2L2:H2L1 normalized median ratio,[6],96%
D3H44 Fab heavy chain L124R_Q179K,H2L2:H2L1 normalized median ratio,[7],92 parts of 100
same,H2L2:H2L1 normalized median ratio,[8],92 parts of 100
same,H2L2:H2L1 normalized median ratio,[9],91 parts of 100
same,H2L2:H2L1 normalized median ratio,[10],91 parts of 100
same,H2L2:H2L1 normalized median ratio,[11],94 parts of 100
same,H2L2:H2L1 normalized median ratio,[12],93 parts of 100
same,H2L2:H2L1 normalized median ratio,[13],93 parts of 100
"D3H44 H1L1 Fab heterodimer, H1 L124E_L143E_K145M, L1 Q124K_V133G_Q160K_S176R",Change in median KD of h1l1 Fab heterodimer compared to wild type (-(log(KD design)-log(KD wt))) (log(KD) difference),[14],-0.26
same,pKd,[15],9.55
D3H44 Fab heavy chain A139C_L143E_K145T_Q179E with C-terminal ABD2-His6 tag,H1L1:H1L2 normalized median ratio,[16],89%
same,H1L1:H1L2 normalized median scalar value ln(r1/f1),[16],2.08
same,H1L1:H1L2 normalized median ratio,[17],11%
"D3H44 Fab heterodimer, H1 L124E_L143E_K145T / L1 Q124K_V133G_Q160K_S176R (H1L1 Fab of LCCA set 9277)",pKd,[18],9.70
same,Change in median values of KD of h1l1 Fab heterodimer compared to wild type (-(log(KD design)-log(KD wt))),[19],-0.12
D3H44 Fab heavy chain Q39E_L143E_K145T_Q179E,H1L1:H1L2 normalized median ratio,[20],97%
same,H1L1:H1L2 normalized median scalar value ln(r1/f1),[20],3.58 and 1.58
same,H1L1:H1L2 normalized median ratio,[21],3%
D3H44 Fab heavy chain L143K with C-terminal ABD2-His6 tag,H2L2:H2L1 normalized median ratio,[22],8%
same,H2L2:H2L1 normalized median ratio,[23],8%
same,H2L2:H2L1 normalized median ratio,[24],92%
same,H2L2:H2L1 normalized median ratio,[25],92%
"D3H44 light chain Q124R_T178K, HA or FLAG tagged",H1L1:H1L2 normalized median ratio,[26],84%
same,H1L1:H1L2 normalized median scalar value ln(r1/f1),[26],1.63
same,H2L2:H2L1 normalized median ratio,[27],3%
same,H2L2:H2L1 normalized median ratio,[28],3%
same,H1L1:H1L2 normalized median ratio,[29],84%
same,H1L1:H1L2 normalized median scalar value ln(r1/f1),[29],1.69
"D3H44 H1L1 Fab heterodimer, H1 L124E_L143E_K145T, L1 Q124K_V133G_S176R_T178R",pKd,[30],9.74
same,Change in median KD of h1l1 Fab heterodimer compared to wild type (-(log(KD design)-log(KD wt))) (log(KD) difference),[31],-0.07
D3H44 Fab heavy chain L45P_K145T_Q179E,H1L1:H1L2 normalized median ratio,[32],94%
same,H1L1:H1L2 normalized median scalar value ln(r1/f1),[32],2.83
same,H2L2:H2L1 normalized median ratio,[32],94%
same,H1L1:H1L2 normalized median ratio,[33],93%
same,H1L1:H1L2 normalized median scalar value ln(r1/f1),[33],2.54
same,H2L2:H2L1 normalized median ratio,[33],93%
same,H1L1:H1L2 normalized median ratio,[34],7%
same,H2L2:H2L1 normalized median ratio,[34],7%
same,H1L1:H1L2 normalized median ratio,[35],96%
same,H1L1:H1L2 normalized median scalar value ln(r1/f1),[35],3.19
same,H2L2:H2L1 normalized median ratio,[35],96%
same,H1L1:H1L2 normalized median ratio,[36],6%
same,H2L2:H2L1 normalized median ratio,[36],6%
same,H1L1:H1L2 normalized median ratio,[37],4%
same,H2L2:H2L1 normalized median ratio,[37],4%
D3H44 Fab heavy chain L124R_S186K,H2L2:H2L1 normalized median ratio,[38],90 parts of 100
same,H2L2:H2L1 normalized median ratio,[39],91 parts of 100
same,H2L2:H2L1 normalized median ratio,[40],91 parts of 100
same,H2L2:H2L1 normalized median ratio,[41],92 parts of 100
"D3H44 H1L1 Fab heterodimer, H1 L124E_L143E_K145T, L1 Q124K_V133G_Q160K_S176R",Change in median KD of h1l1 Fab heterodimer compared to wild type (-(log(KD design)-log(KD wt))) (log(KD) difference),[14],-0.12
same,pKd,[15],9.70
"D3H44 light chain Q124E_V133W_S176T_T178L_T180E, HA or FLAG tagged",H2L2:H2L1 normalized median ratio,[42],31%
D3H44 Fab heavy chain L124E_K145T_Q179E,H1L1:H1L2 normalized median ratio,[38],4 parts of 100
same,H1L1:H1L2 normalized median ratio,[39],4 parts of 100
same,H1L1:H1L2 normalized median ratio,[7],3 parts of 100
same,H1L1:H1L2 normalized median ratio,[8],3 parts of 100
same,H1L1:H1L2 normalized median ratio,[9],4 parts of 100
same,H1L1:H1L2 normalized median ratio,[10],3 parts of 100
same,H1L1:H1L2 normalized median ratio,[11],5 parts of 100
same,H1L1:H1L2 normalized median ratio,[40],5 parts of 100
same,H1L1:H1L2 normalized median ratio,[41],4 parts of 100
same,H1L1:H1L2 normalized median ratio,[12],5 parts of 100
same,H1L1:H1L2 normalized median ratio,[13],5 parts of 100
"D3H44 Fab heterodimer, H1 A139C_L143E_K145T_Q179E / L1 F116C_Q124R_T178R (H1L1 Fab of LCCA set 9049)",pKd,[18],9.80
same,Change in median values of KD of h1l1 Fab heterodimer compared to wild type (-(log(KD design)-log(KD wt))),[19],-0.01
